Reference: article PMC7954794, “Protein context shapes the specificity of SH3 domain-mediated interactions in vivo” (Nature Communications, 2021)

B1: HOF1 (protein, UniProt Q05080 1-669, looked up)
Cytokinesis protein 2: MSYSYEACFWDPNDNGVNILLGHISQGIRSCDSMILFFKQRSELEKDYARRLGAITGKLDKDIGTNMDYGKLNETFNVVLSVEKARAQSHSKQSEILFRQIYTDTKAFAANLQARYTTLSGKIERLRMDKFNKKKGCEVLQKKLQDAQIRFRDLQLNENNMIGAKRVEHNKRELLKWESNSQEYKVQLDVLKQEYKASQKFWIHEWAQLSCELQEMENARISFLQSKLQQFATSSMETYILEQTKMDMLTNHLNSFTAADEISTFSKENGTGRLKHKTSKGDMNSSANWAQMSSISTTSKKTESYMDNIRKLSSQLKETENKRKLASIDKYEKPLPSPEVTMATQFRNSTPVIRNETKVVANPTLSLRSSPVQLQSNVDDSVLRQKPDKPRPIVGEEQLKPDEDSKNPDEKGLMVHKRNQSLSSPSESSSSNPTDFSHIKKRQSMESMTTSVSSMANSIDDSQRFAKSWNSSNRKRKSMSHLQVPSSASSRSDDGGRTPNSAHNLNEDDYNTRRDTSTSTILFKPPVAVRGTSRGHTHRQSMIMQDSSNPIEDALYEMERIQSSSKPGTKTGNIMDERGVVRDRGITVTLPIVTSEGFPVIEYAKAMYPLIGNEAPGLANFHKGDYLLITEIVNKDWYKGEVYDNDRIDRNHRIGLIPYNFIQLLHQGL
B2: HSE1 (protein, UniProt P38753 2-452, looked up)
Class E vacuolar …: SSSAIKIRNALLKATDPKLRSDNWQYILDVCDLVKEDPEDNGQEVMSLIEKRLEQQDANVILRTLSLTVSLAENCGSRLRQEISSKNFTSLLYALIESHSVHITLKKAVTDVVKQLSDSFKDDPSLRAMGDLYDKIKRKAPYLVQPNVPEKHNMSTQADNSDDEELQKALKMSLFEYEKQKKLQEQEKESAEVLPQQQQQHQQQNQAPAHKIPAQTVVRRVRALYDLTTNEPDELSFRKGDVITVLEQVYRDWWKGALRGNMGIFPLNYVTPIVEPSKEEIEKEKNKEAIVFSQKTTIDQLHNSLNAASKTGNSNEVLQDPHIGDMYGSVTPLRPQVTRMLGKYAKEKEDMLSLRQVLANAERSYNQLMDRAANAHISPPVPGPALYAGMTHANNTPVMPPQRQSYQSNEYSPYPSNLPIQHPTNSANNTPQYGYDLGYSVVSQPPPGYEQ

Test system: Abp1 PPIs
Assay: DHFR-PCA of Abp1 SH3-swapped baits (Fig. 2B-D, S2C, S2F);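 on Protein-protein interaction distance between Abp1 SH3-swapped baits, to ABP1: Euclidean distance between DHFR-PCA score profiles of the baits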;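 on Protein-protein interaction distance between Abp1 SH3-swapped baits, to BEM1-2: Euclidean distance between DHFR-PCA score profiles of the baits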;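 on Protein-protein interaction distance between Abp1 SH3-swapped baits, to BOI1: Euclidean distance between DHFR-PCA score profiles of the baits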;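 on Protein-protein interaction distance between Abp1 SH3-swapped baits, to BZZ1-1: Euclidean distance between DHFR-PCA score profiles of the baits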
Assay type: cell-based, Saccharomyces cerevisiae
Conditions: for Protein-protein interaction distance between Abp1 SH3-swapped baits, to ABP1: Abp1 bait with swapped SH3, distance to bait with ABP1 SH3; for Protein-protein interaction distance between Abp1 SH3-swapped baits, to ABP1 / Protein-protein interaction distance between Abp1 SH3-swapped baits, to BBC1 / Protein-protein interaction distance between Abp1 SH3-swapped baits, to BEM1-1 / Protein-protein interaction distance between Abp1 SH3-swapped baits, to BEM1-2 / Protein-protein interaction distance between Abp1 SH3-swapped baits, to BOI1 / Protein-protein interaction distance between Abp1 SH3-swapped baits, to BOI2 / Protein-protein interaction distance between Abp1 SH3-swapped baits, to BUD14 / Protein-protein interaction distance between Abp1 SH3-swapped baits, to BZZ1-1 / Protein-protein interaction distance between Abp1 SH3-swapped baits, to BZZ1-2 / Protein-protein interaction distance between Abp1 SH3-swapped baits, to CDC25 / Protein-protein interaction distance between Abp1 SH3-swapped baits, to CTTN / Protein-protein interaction distance between Abp1 SH3-swapped baits, to CYK3 / Protein-protein interaction distance between Abp1 SH3-swapped baits, to DBNL / Protein-protein interaction distance between Abp1 SH3-swapped baits, to FUS1 / Protein-protein interaction distance between Abp1 SH3-swapped baits, to HCLS1 / Protein-protein interaction distance between Abp1 SH3-swapped baits, to HOF1 / Protein-protein interaction distance between Abp1 SH3-swapped baits, to HSE1 / Protein-protein interaction distance between Abp1 SH3-swapped baits, to LSB1 / Protein-protein interaction distance between Abp1 SH3-swapped baits, to LSB3 / Protein-protein interaction distance between Abp1 SH3-swapped baits, to MYO3 / Protein-protein interaction distance between Abp1 SH3-swapped baits, to MYO5 / Protein-protein interaction distance between Abp1 SH3-swapped baits, to NBP2 / Protein-protein interaction distance between Abp1 SH3-swapped baits, to PEX13 / Protein-protein interaction distance between Abp1 SH3-swapped baits, to PIN3 / Protein-protein interaction distance between Abp1 SH3-swapped baits, to RVS167 / Protein-protein interaction distance between Abp1 SH3-swapped baits, to SDC25 / Protein-protein interaction distance between Abp1 SH3-swapped baits, to SHO1 / Protein-protein interaction distance between Abp1 SH3-swapped baits, to SLA1-1 / Protein-protein interaction distance between Abp1 SH3-swapped baits, to SLA1-2 / Protein-protein interaction distance between Abp1 SH3-swapped baits, to SLA1-3 / Protein-protein interaction distance between Abp1 SH3-swapped baits, to YSC84: sheet Fig2C; for Protein-protein interaction distance between Abp1 SH3-swapped baits, to BBC1: distance to Abp1 bait with BBC1 SH3; for Protein-protein interaction distance between Abp1 SH3-swapped baits, to BEM1-1: distance to Abp1 bait with BEM1-1 SH3; for Protein-protein interaction distance between Abp1 SH3-swapped baits, to BEM1-2: distance to Abp1 bait with BEM1-2 SH3; for Protein-protein interaction distance between Abp1 SH3-swapped baits, to BOI1: distance to Abp1 bait with BOI1 SH3; for Protein-protein interaction distance between Abp1 SH3-swapped baits, to BOI2: distance to Abp1 bait with BOI2 SH3; for Protein-protein interaction distance between Abp1 SH3-swapped baits, to BUD14: distance to Abp1 bait with BUD14 SH3; for Protein-protein interaction distance between Abp1 SH3-swapped baits, to BZZ1-1: distance to Abp1 bait with BZZ1-1 SH3; for Protein-protein interaction distance between Abp1 SH3-swapped baits, to BZZ1-2: distance to Abp1 bait with BZZ1-2 SH3; for Protein-protein interaction distance between Abp1 SH3-swapped baits, to CDC25: distance to Abp1 bait with CDC25 SH3; for Protein-protein interaction distance between Abp1 SH3-swapped baits, to CTTN: distance to Abp1 bait with CTTN SH3; for Protein-protein interaction distance between Abp1 SH3-swapped baits, to CYK3: distance to Abp1 bait with CYK3 SH3; for Protein-protein interaction distance between Abp1 SH3-swapped baits, to DBNL: distance to Abp1 bait with DBNL SH3; for Protein-protein interaction distance between Abp1 SH3-swapped baits, to FUS1: distance to Abp1 bait with FUS1 SH3; for Protein-protein interaction distance between Abp1 SH3-swapped baits, to HCLS1: distance to Abp1 bait with HCLS1 SH3; for Protein-protein interaction distance between Abp1 SH3-swapped baits, to HOF1: distance to Abp1 bait with HOF1 SH3; for Protein-protein interaction distance between Abp1 SH3-swapped baits, to HSE1: distance to Abp1 bait with HSE1 SH3; for Protein-protein interaction distance between Abp1 SH3-swapped baits, to LSB1: distance to Abp1 bait with LSB1 SH3; for Protein-protein interaction distance between Abp1 SH3-swapped baits, to LSB3: distance to Abp1 bait with LSB3 SH3; for Protein-protein interaction distance between Abp1 SH3-swapped baits, to MYO3: distance to Abp1 bait with MYO3 SH3; for Protein-protein interaction distance between Abp1 SH3-swapped baits, to MYO5: distance to Abp1 bait with MYO5 SH3; for Protein-protein interaction distance between Abp1 SH3-swapped baits, to NBP2: distance to Abp1 bait with NBP2 SH3; for Protein-protein interaction distance between Abp1 SH3-swapped baits, to PEX13: distance to Abp1 bait with PEX13 SH3; for Protein-protein interaction distance between Abp1 SH3-swapped baits, to PIN3: distance to Abp1 bait with PIN3 SH3; for Protein-protein interaction distance between Abp1 SH3-swapped baits, to RVS167: distance to Abp1 bait with RVS167 SH3; for Protein-protein interaction distance between Abp1 SH3-swapped baits, to SDC25: distance to Abp1 bait with SDC25 SH3; for Protein-protein interaction distance between Abp1 SH3-swapped baits, to SHO1: distance to Abp1 bait with SHO1 SH3; for Protein-protein interaction distance between Abp1 SH3-swapped baits, to SLA1-1: distance to Abp1 bait with SLA1-1 SH3; for Protein-protein interaction distance between Abp1 SH3-swapped baits, to SLA1-2: distance to Abp1 bait with SLA1-2 SH3; for Protein-protein interaction distance between Abp1 SH3-swapped baits, to SLA1-3: distance to Abp1 bait with SLA1-3 SH3; for Protein-protein interaction distance between Abp1 SH3-swapped baits, to YSC84: distance to Abp1 bait with YSC84 SH3; for PPIs gained by Abp1 - SH3-dependent PPIs gained by Abp1 / SH3-dependent PPIs - SH3-dependent PPIs gained by Abp1 / SH3-dependent PPIs gained by Abp1: number of PPIs, Abp1 SH3-swapped with the listed SH3, Fig2D,S2F; for PPIs gained by Abp1 - SH3-dependent PPIs gained by Abp1 / SH3-dependent PPIs - SH3-dependent PPIs gained by Abp1: difference; for SH3-dependent PPIs gained by Abp1: DHFR-PCA
Outline: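 Yeast DHFR-PCA in which Abp1 baits, carrying their SH3 replaced by CRISPR–Cas9 with one of 27 yeast SH3s or human CTTN, HCLS1 or DBNL SH3s, were mated against 575 SH3-associated DHFR F[3] preys plus 40 negative controls. Four tests were run per PPI. Diploids were selected twice (48 h, 30 °C), then grown 4 days on PCA selection media.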

Row | Molecule | Protein-protein interaction distance between Abp1 SH3-swapped baits, to ABP1 | Protein-protein interaction distance between Abp1 SH3-swapped baits, to BBC1 | Protein-protein interaction distance between Abp1 SH3-swapped baits, to BEM1-1 | Protein-protein interaction distance between Abp1 SH3-swapped baits, to BEM1-2 | Protein-protein interaction distance between Abp1 SH3-swapped baits, to BOI1 | Protein-protein interaction distance between Abp1 SH3-swapped baits, to BOI2 | Protein-protein interaction distance between Abp1 SH3-swapped baits, to BUD14 | Protein-protein interaction distance between Abp1 SH3-swapped baits, to BZZ1-1 | Protein-protein interaction distance between Abp1 SH3-swapped baits, to BZZ1-2 | Protein-protein interaction distance between Abp1 SH3-swapped baits, to CDC25 | Protein-protein interaction distance between Abp1 SH3-swapped baits, to CTTN | Protein-protein interaction distance between Abp1 SH3-swapped baits, to CYK3 | Protein-protein interaction distance between Abp1 SH3-swapped baits, to DBNL | Protein-protein interaction distance between Abp1 SH3-swapped baits, to FUS1 | Protein-protein interaction distance between Abp1 SH3-swapped baits, to HCLS1 | Protein-protein interaction distance between Abp1 SH3-swapped baits, to HOF1 | Protein-protein interaction distance between Abp1 SH3-swapped baits, to HSE1 | Protein-protein interaction distance between Abp1 SH3-swapped baits, to LSB1 | Protein-protein interaction distance between Abp1 SH3-swapped baits, to LSB3 | Protein-protein interaction distance between Abp1 SH3-swapped baits, to MYO3 | also measured
1 | B1 | 30.98 | 29.63 | 23.16 | 6.415 | 26.74 | 25.74 | 21.88 | 30.35 | 27.6 | 10.42 | 25.67 | 10.8 | 29.45 | 21.29 | 32.71 | 0.00 | 29.42 | 35.15 | 34.67 | 33.94 | Protein-protein interaction distance between Abp1 SH3-swapped baits, to MYO5: 33.29; Protein-protein interaction distance between Abp1 SH3-swapped baits, to NBP2: 21.63; Protein-protein interaction distance between Abp1 SH3-swapped baits, to PEX13: 33.79; Protein-protein interaction distance between Abp1 SH3-swapped baits, to PIN3: 32.38; Protein-protein interaction distance between Abp1 SH3-swapped baits, to RVS167: 32.19; Protein-protein interaction distance between Abp1 SH3-swapped baits, to SDC25: 7.905; Protein-protein interaction distance between Abp1 SH3-swapped baits, to SHO1: 29.05; Protein-protein interaction distance between Abp1 SH3-swapped baits, to SLA1-1: 9.015; Protein-protein interaction distance between Abp1 SH3-swapped baits, to SLA1-2: 20.72; Protein-protein interaction distance between Abp1 SH3-swapped baits, to SLA1-3: 35.48; Protein-protein interaction distance between Abp1 SH3-swapped baits, to YSC84: 34.92; PPIs gained by Abp1 - SH3-dependent PPIs gained by Abp1: 1; SH3-dependent PPIs - SH3-dependent PPIs gained by Abp1: 4; SH3-dependent PPIs gained by Abp1: 0
2 | B2 | 9.43 | 7.295 | 11.1 | 30.97 | 7.847 | 11.78 | 14.54 | 5.175 | 7.81 | 24.19 | 9.154 | 25.16 | 5.82 | 16.23 | 9.236 | 29.42 | 0.00 | 12.02 | 12.29 | 11.17 | Protein-protein interaction distance between Abp1 SH3-swapped baits, to MYO5: 10.84; Protein-protein interaction distance between Abp1 SH3-swapped baits, to NBP2: 13.88; Protein-protein interaction distance between Abp1 SH3-swapped baits, to PEX13: 8.715; Protein-protein interaction distance between Abp1 SH3-swapped baits, to PIN3: 9.808; Protein-protein interaction distance between Abp1 SH3-swapped baits, to RVS167: 7.315; Protein-protein interaction distance between Abp1 SH3-swapped baits, to SDC25: 31.59; Protein-protein interaction distance between Abp1 SH3-swapped baits, to SHO1: 5.64; Protein-protein interaction distance between Abp1 SH3-swapped baits, to SLA1-1: 27.26; Protein-protein interaction distance between Abp1 SH3-swapped baits, to SLA1-2: 16.63; Protein-protein interaction distance between Abp1 SH3-swapped baits, to SLA1-3: 11.86; Protein-protein interaction distance between Abp1 SH3-swapped baits, to YSC84: 12.83; PPIs gained by Abp1 - SH3-dependent PPIs gained by Abp1: 4; SH3-dependent PPIs - SH3-dependent PPIs gained by Abp1: 1; SH3-dependent PPIs gained by Abp1: 0
